The values below come from IntAct's records for PubMed 29039417.

B1: BBSome complex member BBS2 (Homo sapiens), Q9BXC9 (parent)
chain: MLLPVFTLKLRHKISPRMVAIGRYDGTHPCLAAATQTGKVFIHNPHTRNQHVSASRVFQSPLESDVSLLSINQAVSCLTAGVLNPELGYDALLVGTQTNLLAYDVYNNSDLFYREVADGANAIVLGTLGDISSPLAIIGGNCALQGFNHEGSDLFWTVTGDNVNSLALCDFDGDGKKELLVGSEDFDIRVFKEDEIVAEMTETEIVTSLCPMYGSRFGYALSNGTVGVYDKTSRYWRIKSKNHAMSIHAFDLNSDGVNELITGWSNGKVDARSDRTGEVIFKDNFSSAIAGVVEGDYRMDGHIQLICCSVDGEIRGYLPGTAEMRGNLMDTSAEQDLIRELSQKKQNLLLELRNYEENAKAELASPLNEADGHRGIIPANTRLHTTLSVSLGNETQTAHTELRISTSNDTIIRAVLIFAEGIFTGESHVVHPSIHNLSSSICIPIVPPKDVPVDLHLKAFVGYRSSTQFHVFESTRQLPRFSMYALTSLDPASEPISYVNFTIAERAQRVVVWLGQNFLLPEDTHIQNAPFQVCFTSLRNGGHLHIKIKLSGEITINTDDIDLAGDIIQSMASFFAIEDLQVEADFPVYFEELRKVLVKVDEYHSVHQKLSADMADHSNLIRSLLVGAEDARLMRDMKTMKSRYMELYDLNRDLLNGYKIRCNNHTELLGNLKAVNQAIQRAGRLRVGKPKNQVITACRDAIRSNNINTLFKIMRVGTASS
partner: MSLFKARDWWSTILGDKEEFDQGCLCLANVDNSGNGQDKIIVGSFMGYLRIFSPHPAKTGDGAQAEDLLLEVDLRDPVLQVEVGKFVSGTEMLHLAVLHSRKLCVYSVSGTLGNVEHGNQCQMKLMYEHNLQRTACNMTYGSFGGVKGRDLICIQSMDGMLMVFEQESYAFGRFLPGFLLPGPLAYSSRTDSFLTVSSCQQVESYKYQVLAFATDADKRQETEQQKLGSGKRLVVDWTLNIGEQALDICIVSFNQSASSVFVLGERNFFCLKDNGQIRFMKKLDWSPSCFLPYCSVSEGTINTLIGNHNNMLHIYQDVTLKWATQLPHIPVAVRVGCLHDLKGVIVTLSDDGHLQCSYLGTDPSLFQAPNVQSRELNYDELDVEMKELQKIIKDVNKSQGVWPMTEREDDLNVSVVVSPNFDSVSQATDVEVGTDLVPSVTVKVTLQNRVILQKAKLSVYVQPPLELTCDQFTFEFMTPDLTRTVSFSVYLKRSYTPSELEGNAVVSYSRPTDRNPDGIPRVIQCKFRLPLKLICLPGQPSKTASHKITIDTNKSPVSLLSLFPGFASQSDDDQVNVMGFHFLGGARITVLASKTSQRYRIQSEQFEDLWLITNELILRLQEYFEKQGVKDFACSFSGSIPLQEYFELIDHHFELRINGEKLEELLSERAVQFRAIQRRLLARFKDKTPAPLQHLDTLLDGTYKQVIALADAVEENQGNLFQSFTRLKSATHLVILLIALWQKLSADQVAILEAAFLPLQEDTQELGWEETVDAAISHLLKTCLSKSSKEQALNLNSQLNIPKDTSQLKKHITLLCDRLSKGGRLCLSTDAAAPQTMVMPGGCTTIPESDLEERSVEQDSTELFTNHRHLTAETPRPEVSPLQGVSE

The variants in the test derive from B1. The following applies: with pthb1_human BBS9, Q3SYG4.
Turning to V687K, the “effect of a mutation on the interaction” value is reported as “with no effect”. The result for G541A reads “with no effect”; that for Q680A, “with no effect”; that for F711E, “with no effect”. The result for L597A reads “with no effect”; that for F418A, “with no effect”. Next, D490K: “with no effect”; T709E: “with no effect”; R353E: “with no effect”. Take G462E: the “effect of a mutation on the interaction” value is listed as “with no effect”.

For the variant A615E, the “effect of a mutation on the interaction” value was “with no effect”. The result for S720K reads “with no effect”; that for H665E, “with no effect”; that for V533K, “with no effect”. Next, R699A: “with no effect”; Q516A: “with no effect”; Q516K: “with no effect”. The result for A364E reads “with no effect”; that for S388P, “disrupting interaction strength”.

For the variant T395A, the “effect of a mutation on the interaction” value was “with no effect”. Next, N692A: “with no effect”; F531A: “with no effect”; L544S: “disrupting interaction strength”.

With F590A, the “effect of a mutation on the interaction” value was “with no effect”. For the variant I445A, the “effect of a mutation on the interaction” value is listed as “disrupting interaction strength”. The result for D560K reads “with no effect”; that for L685K, “with no effect”; that for L563K, “with no effect”. The result for I412K reads “with no effect”; that for D450K, “with no effect”. As to K638E, the “effect of a mutation on the interaction” value is reported as “with no effect”. Next, S365K: “with no effect”. For A459E, the “effect of a mutation on the interaction” value was “disrupting interaction strength”. The result for I695K reads “with no effect”; that for I577K, “with no effect”. Next, P448K: “with no effect”; L519K: “with no effect”. The result for E578A reads “with no effect”. For the variant Q477E, the “effect of a mutation on the interaction” value is listed as “with no effect”. The result for F586E reads “with no effect”. In the case of L478E, the “effect of a mutation on the interaction” value is on record as “disrupting interaction strength”.

Turning to N656A, the “effect of a mutation on the interaction” value was “with no effect”. Regarding A529K, the “effect of a mutation on the interaction” value is reported as “with no effect”. Y603A: the “effect of a mutation on the interaction” value is “with no effect”. Next, L580A: “with no effect”.

For the variant R339A, the “effect of a mutation on the interaction” value is recorded as “with no effect”.

As to Y648A, the “effect of a mutation on the interaction” value is on record as “with no effect”.

Turning to Y498K, the “effect of a mutation on the interaction” value is on record as “with no effect”. Next, Y498H: “disrupting interaction strength”; P479K: “with no effect”.

Consider P479A, for which the “effect of a mutation on the interaction” value is reported as “with no effect”. With V461K, the “effect of a mutation on the interaction” value is listed as “disrupting interaction strength”. Next, R703K: “with no effect”; N705E: “with no effect”; R382K: “with no effect”. The result for R594E reads “with no effect”; that for T666K, “with no effect”; that for L402C, “disrupting interaction strength”. The result for H470A reads “with no effect”. Take V596A: the “effect of a mutation on the interaction” value is “with no effect”. The result for V512E reads “with no effect”; that for I702A, “with no effect”; that for V389E, “disrupting interaction strength”. Next, E522A: “with no effect”; L654A: “with no effect”; T331A: “with no effect”.

Regarding Q346A, the “effect of a mutation on the interaction” value was “with no effect”. Next, N500E: “with no effect”.

Take I376V: the “effect of a mutation on the interaction” value is on record as “disrupting interaction strength”.

Turning to S493E, the “effect of a mutation on the interaction” value is “with no effect”.

For the variant I404A, the “effect of a mutation on the interaction” value is reported as “with no effect”. Next, G552K: “with no effect”; S342E: “with no effect”; R635E: “with no effect”. Next, I503E: “with no effect”; I660K: “with no effect”; L669K: “with no effect”. K691A: the “effect of a mutation on the interaction” value is “with no effect”. The result for R652E reads “with no effect”; that for S438E, “with no effect”. Turning to F501A, the “effect of a mutation on the interaction” value was “with no effect”. Next, F501E: “disrupting interaction strength”; L383E: “with no effect”; N671A: “with no effect”.

For E592K, the “effect of a mutation on the interaction” value was “with no effect”. Next, V430E: “with no effect”; G392E: “with no effect”. With G392K, the “effect of a mutation on the interaction” value is recorded as “with no effect”.
